{
  "source": "patent US20230227557A1",
  "about": "(PROMAB BIOTECHNOLOGIES, published 2023)",
  "binders": {"B1": {"name": "mouse monoclonal anti-human PD-L1 antibody (hybridoma clone 7D2A10) (antibody, V domains shown)", "VH": "QIQLVQSGPELKNPGETVKISCKASGYTFTNYGMNWVKQAPGKGLKWMGWINTHTGEPTYADDFKGRFAFSSETSASSAYLQINNLKNDDMATYFCAKGTHREEIPAWFAYWGQGTLVTVSA", "VL": "DVLMTQTPLSLPVSLGDQASISCRSSQSIVHSNGNTYLEWYLQKPGQSPELLIYKVSNLFSGVPDRFSGSGSGTDFTLKISRVEAEDLGVYYCFQGSHVPPTFGAGTKLELKR", "notes": "also called Promab anti-PD-L1; PD-L1 monoclonal antibody"}},
  "biological_target": "T1, PD-L1 on PD-L1-positive cancer cells and tissues (human, UniProt Q9NZQ7 19-290)",
  "T1 construct": "whole, on cells; also called PD-L1 tumor antigen; CD274",
  "T1 sequence (Q9NZQ7 19-290)": "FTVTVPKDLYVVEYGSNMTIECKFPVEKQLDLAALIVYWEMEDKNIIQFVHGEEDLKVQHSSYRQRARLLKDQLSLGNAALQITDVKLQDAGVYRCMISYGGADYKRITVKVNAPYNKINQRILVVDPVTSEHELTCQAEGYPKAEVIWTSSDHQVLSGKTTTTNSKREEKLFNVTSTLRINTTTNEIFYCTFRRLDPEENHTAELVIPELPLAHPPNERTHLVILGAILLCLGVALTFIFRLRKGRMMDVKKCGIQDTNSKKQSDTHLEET",
  "assay": "flow cytometry on cancer cell lines",
  "data": [
    {"binder": "B1", "values": [
      {"measurement": "binding result", "value": "binds"}
    ]}
  ]
}
